Data as given in article PMC5372681, “Study of Different Variants of Mo Enzyme crARC and the Interaction with Its Partners crCytb5-R and crCytb5-1” (International Journal of Molecular Sciences, 2017).

Experiments:
[1] = biological target: crCytb5-1, Chlamydomonas reinhardtii cytochrome b5-1 (Chlamydomonas reinhardtii)
[2] = biological target: crCytb5-R, Chlamydomonas reinhardtii NADH cytochrome b5 reductase (Chlamydomonas reinhardtii)
[3] = biological target: crARC variant F210A (Chlamydomonas reinhardtii); experiment: SEC; each protein loaded alone; Superdex 200 10/300 GL, 50 mM phosphate buffer pH 7.2, 0.15 M NaCl, 0.75 mL/min; Mw from a calibration curve of marker proteins
[4] = biological target: crARC variant R276A (Chlamydomonas reinhardtii); experiment: as above
[5] = biological target: crCytb5-1, Chlamydomonas reinhardtii cytochrome b5-1 (Chlamydomonas reinhardtii); experiment: as above
[6] = biological target: crARC, Chlamydomonas reinhardtii mARC (mitochondrial Amidoxime Reducing Component), wild type (Chlamydomonas reinhardtii); experiment: SEC; two proteins incubated together for 10 min, then loaded; 15 pmol of each; Superdex 200 10/300 GL, 50 mM phosphate buffer pH 7.2, 0.15 M NaCl, 0.75 mL/min; peak fractions checked by SDS-PAGE
[7] = biological target: crCytb5-R, Chlamydomonas reinhardtii NADH cytochrome b5 reductase (Chlamydomonas reinhardtii); experiment: as above

crARC variant E267A (enzyme) showed an NADH-dependent HAP reduction activity of the crARC variant with crCytb5-1 and crCytb5-R (% of the wild type activity) [1] of 25.
Substance “crARC variant E267A (enzyme; the values are: NADH-dependent HAP reduction activity (% of wild type))” has an NADH-dependent HAP reduction activity of the crARC variant with crCytb5-1 and crCytb5-R [2] of 25%.
For crARC variant F210A (enzyme), the times more oligomeric forms than the wild type [3] was 10 times.
In the case of crARC variant R276A (enzyme), the stoichiometry N [4] is reported as 30 crARC units.
Substance “crCytb5-1, Chlamydomonas reinhardtii cytochrome b5-1 (natural protein)” has a stoichiometry N [5] of 2, a stoichiometry N (crCytb5-1 per crARC) [6] of 2 and a stoichiometry N (crCytb5-1 per crCytb5-R) [7] of 4.
